Measured values: patent US9266964
Where a chain is given by its changes, count along the chain named.

B1: M162-A04 (Fab, V domains shown)
VH: EVQLLESGGGLVQPGGSLRLSCAASGFTFSHYIMMWVRQAPGKGLEWVSGIYSSGGITVYADSVKGRFTISRDNSKNTLYLQMNSLRAEDTAVYYCAYRRTGIPRRDAFDIWGQGTMVTVSS
VL: DIQMTQSPSTLSASVGDRVTITCRASQSISSWLAWYQQKPGKAPNLLIYKASTLESGVPSRFSGSGSGTEFTLTISSLQPDDFATYYCQQYNTYWTFGQGTKVEIK
notes: Non-germlined Fab discovered using phage display; Printed HC runs from VH into the start of CH1; also called M162-A4; 559A-M162-A4
B2: M161-C11 (Fab, V domains shown)
VH: EVQLLESGGGLVQPGGSLRLSCAASGFTFSDYAMKWVRQAPGKGLEWVSSISSSGGVTQYADSVKGRFTISRDNSKNTLYLQMNSLRAEDTAVYYCAREEDYSSSWYSRRFDYYYGMDVWGQGTTVTVSS
VL: QSALTQPPSVSVSPGQTASITCSGDKLGDKYVSWYQQRPGQSPVLVIYQDTKRPSGIPERFSGSNSGNTATLTISGTQAVDEADYYCQAWDSSTYVFGGGTKVTVL
notes: Printed HC runs from VH into the start of CH1
B3: M142-H08 (Fab, V domains shown)
VH: EVQLLESGGGLVQPGGSLRLSCAASGFTFSAYSMIWVRQAPGKGLEWVSYIRPSGGRTTYADSVKGRFTISRDNSKNTLYLQMNSLRAEDTAVYYCARGGLLLWFRELKSNYFDYWGQGTLVTVSS
VL: DIQMTQSPSSLSAFVGDRVTITCRASQPIDNYLNWYHQKPGKAPKLLIYAASRLQSGVPSRLSGSGFGTDFTLTISSLQPEDFGNYYCQQSYTVPYTFGGGTKVEIR
notes: as for B2
B4: M208-F10 (Fab, V domains shown)
VH: EVQLLESGGGLVQPGGSLRLSCAASGFTFSHYLMTWVRQAPGKGLEWVSYISPSGGHTIYADSVKGRFTISRDNSKNTLYLQMNSLRAEDTAVYYCARVARGIAARSRTSYFDQWGQGTLVTVSS
VL: DIQMTQSPGTLSLSPGERATLSCRTSQFVNSNYLAWYQQTPGQAPRLLIYGASSRATGIPDRFSGTGYGTDFTLTISRLEPEDYGTYYCQQSSRTPWTFGQGTRVEIK
notes: Tested as Fab; printed HC runs into CH1; amber q written Q
B5: M160-G12 (Fab, V domains shown)
VH: B4 VH with Q114Y
VL: DIQMTQSPSFLSASVGDRVTITCRASQGISSYLAWYQQKPGKAPKLLIYAASTLQSGVPSRFSGSGSGTEFTLTISSLQPEDFATYYCQQLNSYPLTFGGGTKVEIK
notes: Printed HC runs from VH into the start of CH1; also called R84-D02 (as IgG)
B6: M208-G03 (Fab, V domains shown)
VH: B4 VH with F112L, Q114Y
VL: B4 VL
notes: Tested as Fab; printed HC runs into CH1
B7: M210-B02 (Fab, V domains shown)
VH: B4 VH with R98S, D113N
VL: B4 VL
notes: as for B4
B8: M206-B10 (Fab, V domains shown)
VH: B4 VH with H31Q, T35A, Y50S, S52Y, H57W, I59K, Q114Y
VL: B4 VL
notes: as for B4
B9: M210-G04 (Fab, V domains shown)
VH: B4 VH with R101T, A104V, S110R
VL: B4 VL
notes: as for B4
B10: M205-D04 (Fab, V domains shown)
VH: B4 VH with H31T, L33K, T35Q, Y50S, H57P, I59N, Q114Y
VL: B4 VL
notes: as for B4
B11: M210-H06 (Fab, V domains shown)
VH: B4 VH with S110R, Q114Y
VL: B4 VL
notes: as for B6
B12: M208-C06 (Fab, V domains shown)
VH: B4 VH with Y111F, F112I, Q114Y
VL: B4 VL
notes: as for B6
B13: M208-F04 (Fab, V domains shown)
VH: B4 VH with Y111F, Q114Y
VL: B4 VL
notes: as for B6
B14: M206-H08 (Fab, V domains shown)
VH: B4 VH with H31D, L33M, T35A, Y50S, S52V, I59H, Q114Y
VL: B4 VL
notes: as for B6
B15: M206-F01 (Fab, V domains shown)
VH: B4 VH with H31G, L33M, T35V, Y50R, H57P, Q114Y
VL: B4 VL
notes: as for B6
B16: M209-E02 (Fab, V domains shown)
VH: B4 VH with S110I, Y111L, F112L
VL: B4 VL
notes: as for B4
B17: M210-C12 (Fab, V domains shown)
VH: B4 VH with R101Q, Y111S, F112V
VL: B4 VL
notes: as for B4
B18: M210-G10 (Fab, V domains shown)
VH: B4 VH with F112L, Q114F
VL: B4 VL
notes: as for B6
B19: M209-F04 (Fab, V domains shown)
VH: B4 VH with F112L, G116S
VL: B4 VL
notes: Tested as Fab; printed HC runs into CH1; amber q written Q; WSQGTL as printed
B20: M209-B09 (Fab, V domains shown)
VH: B4 VH with R101Q, A104V, F112L, D113H
VL: B4 VL
notes: as for B4
B21: M208-E10 (Fab, V domains shown)
VH: B4 VH with R101Q, A104S, Q114Y
VL: B4 VL
notes: as for B6
B22: M210-H07 (Fab, V domains shown)
VH: B4 VH with S110R
VL: B4 VL
notes: as for B4
B23: M208-H02 (Fab, V domains shown)
VH: B4 VH with A105S, S110R, F112C, Q114Y
VL: B4 VL
notes: as for B6
B24: M209-C11 (Fab, V domains shown)
VH: B4 VH with R98M, A100G, R101Q, A104R, A105G, D113A
VL: B4 VL
notes: as for B4
B25: M145-D01 (Fab, V domains shown)
VH: EVQLLESGGGLVQPGGSLRLSCAASGFTFSYYHMSWVRQAPGKGLEWVSVISPSGGSTKYADSVKGRFTISRDNSKNTLYLQMNSLRAEDTAVYYCARGGSSDYAWGSYRRPYYFDYWGQGTLVTVSS
VL: DIQMTQSPATLSLSPGERATLSCRASQSVSSYLAWYQQKPGQAPRLLIYDASNRATGIPARFSGSGSGTDFTLTISSLEPEDFAVYYCQQRSNWPRGFTFGPGTKVDIK
notes: as for B2
B26: M146-E12 (Fab, V domains shown)
VH: EVQLLESGGGLVQPGGSLRLSCAASGFTFSRYIMHWVRQAPGKGLEWVSSISPSGGLTSYADSVKGRFTISRDNSKNTLYLQMNSLRAEDTAVYYCAREFENAYHYYYYGMDVWGQGTTVTVSS
VL: DIQMTQSPSSLSASVGDRVTITCRASGDIGNALGWYQQKPGKAPRLLISDASTLQSGVPLRFSGSGSGTEFTLTISSLQPEDFATYYCLQGYNYPRTFGQGTKLEIR
notes: as for B2
B27: M152-A12 (Fab, V domains shown)
VH: EVQLLESGGGLVQPGGSLRLSCAASGFTFSPYFMGWVRQAPGKGLEWVSGIGPSGGSTTYADSVKGRFTISRDNSKNTLYLQMNSLRAEDTAVYYCAREGPPYSSGWYRGLRQYHFDYWGQGTLVTVSS
VL: DIQMTQSPSSLSASVGDRVTITCRASQSISSYLSWYQQRPGKAPNLLIYAASSLQSGVPSRFSGSGSGTDFTLTISSLQPEDFATYYCQQSISIPRTFGQGTKVEVK
notes: as for B2
B28: M145-D11 (Fab, V domains shown)
VH: EVQLLESGGGLVQPGGSLRLSCAASGFTFSHYRMSWVRQAPGKGLEWVSSIYPSGGRTVYADSVKGRFTISRDNSKNTLYLQMNSLRAEDTAVYYCAKDKFEWRLLFRGIGNDAFDIWGQGTMVTVSS
VL: QSVLTQPPSVSVSPGQTASITCSGDKLGDKYTSWYQQRPGQSPVLVIYQDIKRPSGIPERFSGSNSGNTATLTISGTQAMDEADYYCQAWDSPNARVFGSGTKVTVL
notes: Printed HC runs from VH into the start of CH1; also called 559A-M145-D11; 559A-M0145-D11

Tests used:
human plasma kallikrein [1] = target: T1, human plasma kallikrein (human, UniProt P03952 20-390; P03952 391-638); assay: ELISA, biotinylated plasma kallikrein coated on microtiter plate, signal divided by streptavidin background
T1 construct: also called pKal; human pKal
Description: Abbreviations used: "T/B" is the ELISA signal obtained using of the "target" (biotinylated plasma kallikrein) divided by the ELISA signal of the "background" (streptavidin); both of which were coated on microtiter plates. "nd" is not determined. The symbol "q" refers to the amber suppressible stop codon (TAG), which is translated as glutamine (Q) in strains of *E. coli* such as the TG1 cells that were used to express the Fab fragments.
T1 sequence (P03952 20-390, chain 1 of 2): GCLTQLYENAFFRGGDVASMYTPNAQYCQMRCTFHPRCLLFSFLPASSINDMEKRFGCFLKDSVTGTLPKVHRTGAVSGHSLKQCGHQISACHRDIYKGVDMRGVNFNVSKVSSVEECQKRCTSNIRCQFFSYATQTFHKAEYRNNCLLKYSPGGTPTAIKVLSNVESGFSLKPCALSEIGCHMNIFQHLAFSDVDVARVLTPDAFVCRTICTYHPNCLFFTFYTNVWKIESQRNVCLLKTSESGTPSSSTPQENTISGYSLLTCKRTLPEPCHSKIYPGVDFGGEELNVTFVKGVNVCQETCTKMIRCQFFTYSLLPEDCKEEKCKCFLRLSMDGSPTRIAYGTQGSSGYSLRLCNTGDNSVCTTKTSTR
T1 sequence (P03952 391-638, chain 2 of 2): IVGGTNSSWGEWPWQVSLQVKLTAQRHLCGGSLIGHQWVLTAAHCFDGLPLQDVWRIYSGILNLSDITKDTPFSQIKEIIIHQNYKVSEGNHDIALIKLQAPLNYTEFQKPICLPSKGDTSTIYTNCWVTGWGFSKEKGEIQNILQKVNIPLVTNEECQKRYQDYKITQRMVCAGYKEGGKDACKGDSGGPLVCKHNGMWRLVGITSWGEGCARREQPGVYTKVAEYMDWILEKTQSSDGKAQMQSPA

human plasma kallikrein [2] = target: T1, human plasma kallikrein; assay: apparent inhibition constant (Ki,app) against human pKal, enzyme inhibition
human plasma kallikrein [3] = target: T2, human plasma kallikrein (human, UniProt P03952 20-390; P03952 391-638); assay: cell-based or functional assay
T2 sequence (P03952 20-390, chain 1 of 2): as the sequence (P03952 20-390, chain 1 of 2) above
T2 sequence (P03952 391-638, chain 2 of 2): as the sequence (P03952 391-638, chain 2 of 2) above

human plasma kallikrein [4] = target: T2, human plasma kallikrein; assay: Ki,app, inhibition of human pKal enzyme activity

| Binder | Human pKal ELISA (T/B) (human plasma kallikrein [1]) | Ki (human plasma kallikrein [2]) | % inhibition at 10 nM (human plasma kallikrein [3]) | Ki (human plasma kallikrein [4]) |
| --- | --- | --- | --- | --- |
| B1 | 11.4 ratio of ELISA signal on target to background (streptavidin) | 4.8 nM | – | – |
| B2 | 41.8 ratio of ELISA signal on target to background (streptavidin) | 0.3 nM | – | – |
| B3 | 29.9 ratio of ELISA signal on target to background (streptavidin) | 0.2 nM | – | – |
| B4 | – | – | 92.5% | 0.2 nM |
| B5 | 38.3 ratio of ELISA signal on target to background (streptavidin) | 17 nM | – | – |
| B6 | – | – | 93.4% | 0.3 nM |
| B7 | – | – | 90.9% | 0.2 nM |
| B8 | – | – | 94.7% | 0.3 nM |
| B9 | – | – | 94.2% | 0.3 nM |
| B10 | – | – | 91.5% | 0.4 nM |
| B11 | – | – | 93.8% | 0.2 nM |
| B12 | – | – | 91.7% | 0.4 nM |
| B13 | – | – | 95.4% | 0.2 nM |
| B14 | – | – | 96% | 0.17 nM |
| B15 | – | – | 92.6% | 0.2 nM |
| B16 | – | – | 92.4% | 0.3 nM |
| B17 | – | – | 95.6% | 0.16 nM |
| B18 | – | – | 91.2% | 0.4 nM |
| B19 | – | – | 97.6% | 0.09 nM |
| B20 | – | – | 93.5% | 0.2 nM |
| B21 | – | – | 93.7% | 0.09 nM |
| B22 | – | – | 92.8% | 0.4 nM |
| B23 | – | – | 94.4% | 0.2 nM |
| B24 | – | – | 96.2% | 0.14 nM |
| B25 | 6.2 ratio of ELISA signal on target to background (streptavidin) | 1.1 nM | – | – |
| B26 | 49.6 ratio of ELISA signal on target to background (streptavidin) | 2.2 nM | – | – |
| B27 | 19 ratio of ELISA signal on target to background (streptavidin) | < 100 nM | – | – |
| B28 | 40 ratio of ELISA signal on target to background (streptavidin) | 0.79 nM | – | – |
